In the supplement of paper PMC9170038:

Columns and labels:
[1] = test system: MS2 coat protein; experiment: apparent KD of MS2 coat protein, switch OFF state (with FMN for OFF switches, without FMN for ON switches); designed switch direction (-1 OFF switch, 1 ON switch): -1; higher = weaker reporter binding; conditions: FMN input: 0 or 200 uM; Eterna round: R93 (includes R88 designs)
How it was run: (§1)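 Designed RNA switches were transcribed on-chip from Illumina sequencing clusters. They were then titrated with SNAP-549-labelled MS2 coat protein (twofold steps, 0.7 or 1.5 nM to 3 µM; 0.8–1.5 h to 10–20 min per step) in 100 mM Tris-HCl pH 7.5, 80 mM KCl, 4 mM MgCl2, without or with constant ligand. Apparent KD is the per-design median of normalised cluster binding-curve fits.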

[2] = test system: MS2 coat protein; experiment: apparent KD of MS2 coat protein, switch ON state; designed switch direction (-1 OFF switch, 1 ON switch): -1; higher = weaker reporter binding; conditions: FMN input: 0 or 200 uM; Eterna round: R93 (includes R88 designs)
How it was run: as §1

Sequence | apparent KD of MS2 coat protein [1] [nM] | apparent KD of MS2 coat protein [2] [nM]
AAGCCACAUGAGGAUCACCCAUGUAAGGAUAUGAACGAAAUAAAAUAAAAAUAAAAGUUCAGAAGGUACAAAAA [Mat - Exclusion 1 - Eli mod - D23] | 21.9 | 20.2
AUCAUGUAAGGAUAUACAAGAAAAGAAAAGAAAGAAAAGAAGUAGAAGGUACAUGAGGAUCACCCAUGUAAGAA [EteRNA is fun!] | 31.5 | 61
AAAAAGUGAGGAUAUACGUUAAAAAAAAAAAAAAAAAAGCGGUAGAAGGCACAUGAGGAUCACCCAUGUAAAAA [Ex4 Malc#3] | 34.7 | 57.7
CUCUAGUUAGGAUAUGCAAGAAAAGAAAAGAAAGAAAAGAAGCAGAAGGAACAUGAGGAUCACCCAUGUAAGAA [EteRNA is fun!] | 62.5 | 49.4
AAAAAGGAAGGAUAUACGAACAUGUCAAAAGACGUGAAGGGACAUGAGGAUCACCCAUGUAGAAGGUUCAAAAA [JL Half Open 24] | 18.5 | 38.7
AAAAAGUCAGGAUAUACAUGAGGAUCACCCAUGUGAAAGAACGAUUAACGACCAGCAAGUAGAAGGGACAAAAA [Ruby 80] | 20.8 | 22
ACUUAUGAAGGAUAUACUAACAACAUACACUCAACACACACACAUGAGGAUCACCCAUGUAGAAGGUCAAACAU [JR_Exc002_Sub1205] | 18.2 | 19.6
AAAAUACAUGAGGAUCACCCAUGUGAGGAUAUGCAAAACCCAUAUAAAAAGGGAAAAAGCAGAAGGUACAAAAA [wbt round 1 mod 14] | 27.7 | 18.6
UAAAGACAUGAGGAUCACCCAUGUGAGGAUAUAGGUGUAUGCAAAAAAAAGCAUACACCUAGAAGGCACAGAAA [JR_Exc001_Sub303] | 76.3 | 44
AAAAAAGGAGGAUAUACGAACAUGUCAAAAGACGUGAAGGGACAUGAGGAUCACCCAUGUAGAAGGCCUAAAAA [JL Part Open 34] | 60.8 | 35.4
AAAAAACAUGAGGAUCACCCAUGUAAGGAUAUCUAAAAUAAAAGAAAAAUAAAGAAAAGGAGAAGGUACAUGGA [JL wbt mod 22] | 15.6 | 22.9
AACUGACAUGAGGAUCACCCAUGUCAGGAUAUGCUUCAUAAAAAAAAAAAAAAAUGAUGCAGAAGGGACAUGGA [Design 29 :P Sub-opt 5] | 24.5 | 20
AAGUUAUUAGGAUAUACUUGUGCGAUUAAUACGUUGAUAGUACAUGAGGAUCACCCAUGUAGAAGGAAUAAAAA [JR_Exc002_Sub411] | 25.9 | 38.4
AAGUAGGUAGGAUAUACAUAGAUACAGAUUCAUGUGGAACUACAUGAGGAUCACCCAUGUAGAAGGACCUAAUA [AJ 40] | 126 | 30.2
AAAAUGUGAGGAUAUCUGGAUAGGAAAAAGAAAACCUAUCCAGAGAAGGCACAUGAGGAUCACCCAUGUAAAAA [JL cataway mod 4] | 114 | 121
AAAAUGUUAGGAUAUGUGAAGGCGUCUGAUAGACGAGGCCUGCAGAAGGAACAUGAGGAUCACCCAUGUAAAAA [Mod 3 of Nando's Round 1 Power Srip] | 25.6 | 34
UUAACACAUGAGGAUCACCCAUGUUAGGAUAUUGUGGUAGGAACAACUGGGAAACGCACAAGAAGGGACACACA [EX1 Malc#18 Mod 18 - Jieux - Exclusion 1] | 26.6 | 29.2
GGAAAACAUGAGGAUCACCCAUGUAAGGAUAUGCAAAAGGAUAUAGAAGGAAAAAAAAGCAGAAGGUACAAAGG [salish99-ex1-21] | 151 | 32.5
AAAAACUCAGGAUAUAUUAUGGGACAAUGAAGGAAGAUAAAACAUGAGGAUCACCCAUGUAGAAGGGAGAAAAA [JR_Exclusion2_Sub2] | 62.8 | 57.7
